{"source": "patent EP1516629B1", "about": "(Genentech, Inc., dated 2013)", "key": {"human CD11a [1]": {"molecular_target": "T1, human CD11a (human, UniProt P20701 26-1170)", "T1 construct": "whole, on cells; On cells it stands paired with CD18 as LFA-1; also called alpha subunit of LFA-1; LFA-1 (CD11a/CD18)", "experiment": "FACScan, Jurkat cells"}, "rhesus CD11a [2]": {"molecular_target": "T2, rhesus CD11a (rhesus, UniProt H9Z8N3 26-1169)", "T2 construct": "whole, on cells; also called rhCD11a", "T2 sequence": "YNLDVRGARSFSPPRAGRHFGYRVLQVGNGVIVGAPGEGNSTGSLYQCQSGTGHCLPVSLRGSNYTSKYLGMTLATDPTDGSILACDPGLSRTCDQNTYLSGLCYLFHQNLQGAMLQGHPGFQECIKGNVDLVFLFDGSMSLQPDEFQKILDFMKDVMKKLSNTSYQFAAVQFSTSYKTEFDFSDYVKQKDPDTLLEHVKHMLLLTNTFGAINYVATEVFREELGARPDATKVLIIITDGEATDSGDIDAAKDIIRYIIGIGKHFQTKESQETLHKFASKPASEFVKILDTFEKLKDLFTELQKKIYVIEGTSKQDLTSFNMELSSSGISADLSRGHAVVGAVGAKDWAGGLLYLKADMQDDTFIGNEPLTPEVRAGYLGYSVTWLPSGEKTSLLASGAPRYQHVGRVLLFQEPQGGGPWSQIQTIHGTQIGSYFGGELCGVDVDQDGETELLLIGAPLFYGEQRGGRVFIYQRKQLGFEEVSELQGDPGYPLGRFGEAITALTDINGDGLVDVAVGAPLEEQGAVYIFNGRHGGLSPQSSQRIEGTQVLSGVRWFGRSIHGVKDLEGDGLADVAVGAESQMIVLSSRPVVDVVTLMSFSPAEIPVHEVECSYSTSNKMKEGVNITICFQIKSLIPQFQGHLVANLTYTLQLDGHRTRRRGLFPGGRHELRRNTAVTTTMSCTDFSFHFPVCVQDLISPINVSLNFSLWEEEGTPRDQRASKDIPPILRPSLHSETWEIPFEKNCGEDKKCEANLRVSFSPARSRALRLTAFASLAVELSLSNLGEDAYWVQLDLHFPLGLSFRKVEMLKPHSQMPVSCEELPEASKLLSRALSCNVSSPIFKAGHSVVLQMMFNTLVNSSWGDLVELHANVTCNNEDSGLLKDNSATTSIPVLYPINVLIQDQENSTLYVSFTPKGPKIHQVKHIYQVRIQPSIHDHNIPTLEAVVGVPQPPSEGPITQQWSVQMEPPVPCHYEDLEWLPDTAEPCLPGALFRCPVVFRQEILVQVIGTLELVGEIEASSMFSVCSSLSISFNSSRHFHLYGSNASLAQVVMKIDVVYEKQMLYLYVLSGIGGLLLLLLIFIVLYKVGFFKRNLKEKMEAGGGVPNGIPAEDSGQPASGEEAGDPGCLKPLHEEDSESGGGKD", "experiment": "cell binding EC50, rhesus against human CD11a"}, "human CD11a [3]": {"molecular_target": "T1, human CD11a", "experiment": "saturation binding of 125I-antibody to human mononuclear cells, Kd(app)"}, "human CD11a [4]": {"molecular_target": "T1, human CD11a", "experiment": "cell-based or functional assay"}, "rhesus CD11a [5]": {"molecular_target": "T2, rhesus CD11a", "experiment": "binding to rhesus peripheral blood lymphocytes"}, "human CD11a [6]": {"molecular_target": "T1, human CD11a", "experiment": "saturation binding, human lymphocytes, donor 2, Kd(app)"}, "human CD11a [7]": {"molecular_target": "T1, human CD11a", "experiment": "FACScan, Jurkat cells", "remark": "listed apart in the source"}, "human CD11a [8]": {"molecular_target": "T1, human CD11a", "experiment": "FACScan, Jurkat cells", "remark": "listed apart in the source"}, "human CD11a [9]": {"molecular_target": "T1, human CD11a", "experiment": "saturation binding, human lymphocytes, donor 1, Kd(app)"}, "human CD11a [10]": {"molecular_target": "T1, human CD11a", "experiment": "cell-based or functional assay", "remark": "listed apart in the source"}, "rhesus CD11a [11]": {"molecular_target": "T2, rhesus CD11a", "experiment": "binding to rhesus peripheral blood lymphocytes", "remark": "listed apart in the source"}}}
{"binder": "humanized MHM24 IgG1 (HuIgG1) (antibody, V domains shown, F(ab)-8 VL and VH fused to human constant light and IgG1 heavy chains; also called HulgG1; huMHM24) VH: EVQLVESGGGLVQPGGSLRLSCAASGYSFTGHWMNWVRQAPGKGLEWVGMIHPSDSETRYNQKFKDRFTISVDKSKNTLYLQMNSLRAEDTAVYYCARGIYFYGTTYFDYWGQGTLVTVSS VL: DIQMTQSPSSLSASVGDRVTITCRASKTISKYLAWYQQKPGKAPKLLIYSGSTLQSGVPSRFSGSGSGTDFTLTISSLQPEDFATYYCQQHNEYPLTFGQGTKVEIKR", "values": [{"measurement": "EC50 F(ab)/EC50 F(ab)-2", "setting": "human CD11a [1]", "value": 0.004, "unit": "ratio"}, {"measurement": "fold reduction in binding against human CD11a", "setting": "rhesus CD11a [2]", "value": "~1000", "unit": "fold"}, {"measurement": "Kd", "setting": "human CD11a [3]", "value": 0.15, "unit": "nM"}, {"measurement": "IC50, human mixed lymphocyte response assay", "setting": "human CD11a [4]", "value": 0.38, "unit": "nM"}, {"measurement": "EC50", "setting": "rhesus CD11a [5]", "value": 45.6, "unit": "nM"}, {"measurement": "Kd", "setting": "human CD11a [6]", "value": 0.18, "unit": "nM"}, {"measurement": "EC50", "setting": "human CD11a [7]", "value": 0.042, "unit": "nM"}, {"measurement": "Var.EC50/HuIgG1 EC50", "setting": "human CD11a [8]", "value": 1, "unit": "ratio"}, {"measurement": "Kd", "setting": "human CD11a [9]", "value": 0.11, "unit": "nM"}, {"measurement": "IC50, blocking of cell adhesion, Jurkat:HuK", "setting": "human CD11a [10]", "value": 0.13, "unit": "nM"}, {"measurement": "Var.EC50/HuIgG1 EC50", "setting": "rhesus CD11a [11]", "value": 1, "unit": "ratio"}]}
